# According to paper PMC9482650, “Quantitative fragmentomics allow affinity mapping of interactomes” (Nature Communications, 2022):
# T1: APBA1_2, Q02410
# T1 sequence (Q02410 742-832, limits assumed, looked up): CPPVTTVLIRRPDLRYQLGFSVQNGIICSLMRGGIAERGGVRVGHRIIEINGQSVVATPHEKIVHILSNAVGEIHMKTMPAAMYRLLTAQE
# T2: APBA2_2, Q99767
# T2 sequence (Q99767 654-744, limits assumed, looked up): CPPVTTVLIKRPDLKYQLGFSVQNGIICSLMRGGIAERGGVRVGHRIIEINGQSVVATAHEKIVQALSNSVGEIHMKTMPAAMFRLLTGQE
# T3: ARHGEF11, O15085
# T3 sequence (O15085 42-136, limits assumed, looked up): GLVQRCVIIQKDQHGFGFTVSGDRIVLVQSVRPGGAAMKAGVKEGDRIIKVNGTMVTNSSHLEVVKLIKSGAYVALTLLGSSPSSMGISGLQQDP
# T4: GRIP1_2, Q9Y3R0
# T4 sequence (Q9Y3R0 145-248, limits assumed, looked up): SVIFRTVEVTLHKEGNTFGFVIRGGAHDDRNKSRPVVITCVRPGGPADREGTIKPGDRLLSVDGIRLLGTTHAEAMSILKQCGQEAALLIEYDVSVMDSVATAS
# T5: LIN7A, O14910
# T5 sequence (O14910 103-200, limits assumed, looked up): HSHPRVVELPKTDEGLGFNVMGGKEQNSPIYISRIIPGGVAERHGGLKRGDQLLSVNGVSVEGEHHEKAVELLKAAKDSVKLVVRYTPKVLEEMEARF
# T6: LNX2_2, Q8N448
# T6 sequence (Q8N448 334-432, limits assumed, looked up): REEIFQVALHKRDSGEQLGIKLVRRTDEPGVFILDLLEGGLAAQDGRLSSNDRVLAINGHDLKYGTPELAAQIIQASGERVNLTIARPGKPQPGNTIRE
# T7: MPP7, Q5T2T1
# T7 sequence (Q5T2T1 134-230, limits assumed, looked up): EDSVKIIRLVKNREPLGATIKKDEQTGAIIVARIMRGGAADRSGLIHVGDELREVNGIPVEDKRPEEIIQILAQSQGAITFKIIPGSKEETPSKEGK
# T8: NHERF3_3, Q5T2W1
# T8 sequence (Q5T2W1 238-333, limits assumed, looked up): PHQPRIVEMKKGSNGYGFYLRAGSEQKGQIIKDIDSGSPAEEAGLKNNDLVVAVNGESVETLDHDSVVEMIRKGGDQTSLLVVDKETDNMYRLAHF
# T9: PTPN13_1, Q12923
# T9 sequence (Q12923 1088-1188, limits assumed, looked up): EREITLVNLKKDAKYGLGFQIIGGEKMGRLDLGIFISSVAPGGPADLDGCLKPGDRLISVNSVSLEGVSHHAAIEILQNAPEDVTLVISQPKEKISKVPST
# T10: SNTA1, Q13424
# T10 sequence (Q13424 82-180, limits assumed, looked up): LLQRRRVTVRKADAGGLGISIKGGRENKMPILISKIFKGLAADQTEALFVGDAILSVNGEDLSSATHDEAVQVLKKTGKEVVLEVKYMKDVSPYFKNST
# T11: SNTG1, Q9NSN8
# T11 sequence (Q9NSN8 52-150, limits assumed, looked up): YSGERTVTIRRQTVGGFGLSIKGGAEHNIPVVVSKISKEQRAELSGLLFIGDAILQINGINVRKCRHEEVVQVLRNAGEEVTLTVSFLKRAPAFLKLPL
# T12: SYNJ2BP, P57105
# T12 sequence (P57105 8-110, limits assumed, looked up): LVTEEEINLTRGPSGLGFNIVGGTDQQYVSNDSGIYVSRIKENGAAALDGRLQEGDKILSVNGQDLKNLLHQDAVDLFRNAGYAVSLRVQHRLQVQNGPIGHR
# Assays:
# Assay in all cases: holdup assay
# Parameters in all cases: key: below the threshold = too weak to quantify, mostly under pKd 3.1 to 4
# APBA1_2, Q02410 = biological target: T1, APBA1_2, Q02410
# APBA2_2, Q99767 = biological target: T2, APBA2_2, Q99767
# ARHGEF11, O15085 = biological target: T3, ARHGEF11, O15085
# DLG4_1, P78352 = biological target: DLG4_1, P78352
# Sequence of DLG4_1, P78352 (P78352 62-152): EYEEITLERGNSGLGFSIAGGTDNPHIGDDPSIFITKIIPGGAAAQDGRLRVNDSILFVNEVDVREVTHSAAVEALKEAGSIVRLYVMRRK
# DLG4_2, P78352 = biological target: DLG4_2, P78352
# Sequence of DLG4_2, P78352 (P78352 155-259): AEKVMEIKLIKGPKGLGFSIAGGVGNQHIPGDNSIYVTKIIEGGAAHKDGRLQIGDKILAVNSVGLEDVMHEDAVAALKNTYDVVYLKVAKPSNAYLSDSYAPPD
# GIPC2, Q8TF65 = biological target: GIPC2, Q8TF65
# Sequence of GIPC2, Q8TF65 (Q8TF65 112-203): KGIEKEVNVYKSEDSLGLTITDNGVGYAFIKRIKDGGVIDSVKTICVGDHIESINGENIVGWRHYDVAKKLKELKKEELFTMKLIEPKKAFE
# GRIP1_2, Q9Y3R0 = biological target: T4, GRIP1_2, Q9Y3R0
# GRIP2_4, Q9C0E4 = biological target: GRIP2_4, Q9C0E4
# Sequence of GRIP2_4, Q9C0E4 (Q9C0E4 446-548): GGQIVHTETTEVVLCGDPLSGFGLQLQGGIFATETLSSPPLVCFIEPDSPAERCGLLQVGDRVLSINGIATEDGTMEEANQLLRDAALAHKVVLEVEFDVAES
# IL16_4, Q14005 = biological target: IL16_4, Q14005
# Sequence of IL16_4, Q14005 (Q14005 1229-1329): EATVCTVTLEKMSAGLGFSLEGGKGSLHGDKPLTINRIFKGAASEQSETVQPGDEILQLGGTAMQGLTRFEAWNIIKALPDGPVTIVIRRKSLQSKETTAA
# Inadl_2, Q8NI35 = biological target: Inadl_2, Q8NI35
# Sequence of Inadl_2, Q8NI35 (Q8NI35 238-335): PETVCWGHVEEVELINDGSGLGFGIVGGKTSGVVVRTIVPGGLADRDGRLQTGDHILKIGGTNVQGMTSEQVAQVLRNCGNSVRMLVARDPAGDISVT
# Inadl_4, Q8NI35 = biological target: Inadl_4, Q8NI35
# Sequence of Inadl_4, Q8NI35 (Q8NI35 547-651): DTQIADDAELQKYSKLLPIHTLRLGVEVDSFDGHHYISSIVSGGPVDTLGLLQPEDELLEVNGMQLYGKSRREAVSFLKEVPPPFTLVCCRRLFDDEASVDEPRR
# Inadl_8, Q8NI35 = biological target: Inadl_8, Q8NI35
# Sequence of Inadl_8, Q8NI35 (Q8NI35 1425-1530): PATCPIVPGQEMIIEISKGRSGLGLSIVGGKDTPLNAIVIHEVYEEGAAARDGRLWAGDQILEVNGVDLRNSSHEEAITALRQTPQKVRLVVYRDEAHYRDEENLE
# LIN7A, O14910 = biological target: T5, LIN7A, O14910
# LNX2_2, Q8N448 = biological target: T6, LNX2_2, Q8N448
# MAGI1_1, Q96QZ7 = biological target: MAGI1_1, Q96QZ7
# Sequence of MAGI1_1, Q96QZ7 (Q96QZ7 1-106): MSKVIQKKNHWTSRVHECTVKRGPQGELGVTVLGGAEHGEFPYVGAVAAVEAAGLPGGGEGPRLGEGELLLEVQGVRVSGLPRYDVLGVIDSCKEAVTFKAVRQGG
# MPP7, Q5T2T1 = biological target: T7, MPP7, Q5T2T1
# NHERF3_3, Q5T2W1 = biological target: T8, NHERF3_3, Q5T2W1
# NOS1, P29475 = biological target: NOS1, P29475
# Sequence of NOS1, P29475 (P29475 9-101): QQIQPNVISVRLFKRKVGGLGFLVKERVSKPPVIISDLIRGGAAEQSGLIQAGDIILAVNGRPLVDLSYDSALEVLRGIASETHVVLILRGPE
# PARD3_3, Q8TEW0 = biological target: PARD3_3, Q8TEW0
# Sequence of PARD3_3, Q8TEW0 (Q8TEW0 582-685): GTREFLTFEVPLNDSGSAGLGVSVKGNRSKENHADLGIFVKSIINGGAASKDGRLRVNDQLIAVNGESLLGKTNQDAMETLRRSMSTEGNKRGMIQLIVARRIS
# PDZRN4_1, Q6ZMN7 = biological target: PDZRN4_1, Q6ZMN7
# Sequence of PDZRN4_1, Q6ZMN7 (Q6ZMN7 213-318): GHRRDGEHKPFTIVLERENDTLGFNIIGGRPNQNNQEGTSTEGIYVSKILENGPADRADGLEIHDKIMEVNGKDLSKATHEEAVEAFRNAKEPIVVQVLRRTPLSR
# PICK1, Q9NRD5 = biological target: PICK1, Q9NRD5
# Sequence of PICK1, Q9NRD5 (Q9NRD5 17-115): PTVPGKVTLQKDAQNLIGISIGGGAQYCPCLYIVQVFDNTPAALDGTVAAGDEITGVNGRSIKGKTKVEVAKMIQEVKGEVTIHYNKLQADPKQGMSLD
# PTPN13_1, Q12923 = biological target: T9, PTPN13_1, Q12923
# SNTA1, Q13424 = biological target: T10, SNTA1, Q13424
# SNTG1, Q9NSN8 = biological target: T11, SNTG1, Q9NSN8
# SNX27, Q96L92 = biological target: SNX27, Q96L92
# SYNJ2BP, P57105 = biological target: T12, SYNJ2BP, P57105
# [1] = plain residues with an end cap or a label only (N-terminal biotin on a linker: ahx)
# [2] = plain residues with an end cap or a label only (N-terminal biotin on a linker: ttds)
binder,measurement,setting,value
"GYDWGPATDL [TJP3, O95049]",pKd,"APBA1_2, Q02410; [1]",4.17
same,pKd,"APBA2_2, Q99767; [1]",below the threshold
same,pKd,"ARHGEF11, O15085; [1]",4.6
same,pKd,"DLG4_1, P78352; [1]",3.53
same,pKd,"DLG4_2, P78352; [1]",3.68
same,pKd,"GIPC2, Q8TF65; [1]",3.73
same,pKd,"GRIP1_2, Q9Y3R0; [1]",below the threshold
same,pKd,"GRIP2_4, Q9C0E4; [1]",below the threshold
same,pKd,"IL16_4, Q14005; [1]",below the threshold
same,pKd,"Inadl_2, Q8NI35; [1]",below the threshold
same,pKd,"Inadl_4, Q8NI35; [1]",below the threshold
same,pKd,"Inadl_8, Q8NI35; [1]",3.49
same,pKd,"LIN7A, O14910; [1]",3.66
same,pKd,"LNX2_2, Q8N448; [1]",below the threshold
same,pKd,"MAGI1_1, Q96QZ7; [1]",below the threshold
same,pKd,"MPP7, Q5T2T1; [1]",below the threshold
same,pKd,"NHERF3_3, Q5T2W1; [1]",below the threshold
same,pKd,"NOS1, P29475; [1]",below the threshold
same,pKd,"PARD3_3, Q8TEW0; [1]",3.66
same,pKd,"PDZRN4_1, Q6ZMN7; [1]",below the threshold
same,pKd,"PICK1, Q9NRD5; [1]",below the threshold
same,pKd,"PTPN13_1, Q12923; [1]",below the threshold
same,pKd,"SNTA1, Q13424; [1]",4.07
same,pKd,"SNTG1, Q9NSN8; [1]",4.33
same,pKd,"SNX27, Q96L92; [1]",3.64
same,pKd,"SYNJ2BP, P57105; [1]",below the threshold
"RLQRRRETQV [HPV18-E6, P06463]",pKd,"APBA1_2, Q02410; [2]",below the threshold
same,pKd,"APBA2_2, Q99767; [2]",below the threshold
same,pKd,"ARHGEF11, O15085; [2]",3.66
same,pKd,"DLG4_1, P78352; [2]",5.11
same,pKd,"DLG4_2, P78352; [2]",5.46
same,pKd,"GIPC2, Q8TF65; [2]",below the threshold
same,pKd,"GRIP1_2, Q9Y3R0; [2]",below the threshold
same,pKd,"GRIP2_4, Q9C0E4; [2]",below the threshold
same,pKd,"IL16_4, Q14005; [2]",below the threshold
same,pKd,"Inadl_2, Q8NI35; [2]",below the threshold
same,pKd,"Inadl_4, Q8NI35; [2]",below the threshold
same,pKd,"Inadl_8, Q8NI35; [2]",3.32
same,pKd,"LIN7A, O14910; [2]",3.4
same,pKd,"LNX2_2, Q8N448; [2]",3.17
same,pKd,"MAGI1_1, Q96QZ7; [2]",below the threshold
same,pKd,"MPP7, Q5T2T1; [2]",below the threshold
same,pKd,"NHERF3_3, Q5T2W1; [2]",below the threshold
same,pKd,"NOS1, P29475; [2]",3.71
same,pKd,"PARD3_3, Q8TEW0; [2]",below the threshold
same,pKd,"PDZRN4_1, Q6ZMN7; [2]",4.48
same,pKd,"PICK1, Q9NRD5; [2]",below the threshold
same,pKd,"PTPN13_1, Q12923; [2]",below the threshold
same,pKd,"SNTA1, Q13424; [2]",4.7
same,pKd,"SNTG1, Q9NSN8; [2]",3.93
same,pKd,"SNX27, Q96L92; [2]",4.55
same,pKd,"SYNJ2BP, P57105; [2]",5.35
"EVVHTPETSV [SLC16A3, O15427]",pKd,"APBA1_2, Q02410; [2]",4.09
same,pKd,"APBA2_2, Q99767; [2]",below the threshold
same,pKd,"ARHGEF11, O15085; [2]",3.76
same,pKd,"DLG4_1, P78352; [2]",3.9
same,pKd,"DLG4_2, P78352; [2]",4.2
same,pKd,"GIPC2, Q8TF65; [2]",below the threshold
same,pKd,"GRIP1_2, Q9Y3R0; [2]",below the threshold
same,pKd,"GRIP2_4, Q9C0E4; [2]",below the threshold
same,pKd,"IL16_4, Q14005; [2]",below the threshold
same,pKd,"Inadl_2, Q8NI35; [2]",below the threshold
same,pKd,"Inadl_4, Q8NI35; [2]",below the threshold
same,pKd,"Inadl_8, Q8NI35; [2]",below the threshold
same,pKd,"LIN7A, O14910; [2]",below the threshold
same,pKd,"LNX2_2, Q8N448; [2]",below the threshold
same,pKd,"MAGI1_1, Q96QZ7; [2]",below the threshold
same,pKd,"MPP7, Q5T2T1; [2]",below the threshold
same,pKd,"NHERF3_3, Q5T2W1; [2]",below the threshold
same,pKd,"NOS1, P29475; [2]",3.71
same,pKd,"PARD3_3, Q8TEW0; [2]",below the threshold
same,pKd,"PDZRN4_1, Q6ZMN7; [2]",4.5
same,pKd,"PICK1, Q9NRD5; [2]",below the threshold
same,pKd,"PTPN13_1, Q12923; [2]",below the threshold
same,pKd,"SNTA1, Q13424; [2]",4.69
same,pKd,"SNTG1, Q9NSN8; [2]",4.71
same,pKd,"SNX27, Q96L92; [2]",5.15
same,pKd,"SYNJ2BP, P57105; [2]",4.78
